Laboratory results as given in the supplement of paper PMC12636428.

tested on: Saccharomyces cerevisiae; assay: transcriptional activation domain activity (GFP:mCherry ratio, weighted mean of sorted bins, harmonized to initial dataset scale) (arbitrary fluorescence ratio units); higher = stronger transcriptional activation; details: beta-estradiol 1 µM; induction time 4 h
In short: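 Each value is an activation activity: the read-weighted mean of bin median fluorescence, averaged across barcodes, then mapped linearly to the initial dataset scale. The tiles, fused to an estradiol-inducible synthetic transcription factor, sat at the yeast URA3 locus in GFP-reporter diploids. Cells spent 4 hours at 30 °C in SC with 1 uM beta-estradiol before sorting into 8 GFP:mCherry bins, and tiles below 50 reads were removed.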

| Sequence | transcriptional activation domain activity |
| --- | --- |
| MPLQLRCLYNCDVSLIVMLLLGLLLGIFPSLHIEICICSRDLLLICMGMWPVR | 45500 |
| MPLRLRCNCILFYLLFFPLFFFNSTCDFSILLVIFFYSTFSLDFSSFLLFFFF | 55500 |
| MPLSPPLYFIVFLYLQFQLYAYFICYFYILLSFYSSTHPVLSFYPLYYPFYLL | 61300 |
| MPLVRRLGAGGDRGAGTVRVRVATSSHTPHHLKVVVLSKVPFLLPDIVVDRMQ | 12900 |
| MPLWPPFWSAFSFSFSFVLSFFFFLFPFPFPFPFPFSFSLSFLFFLFFSFLFF | 31000 |
| MPMDILVFYIPHRIKFCFFFFYLFIFFIFLPSYLIFYCTVTSAFLLFLYLYYL | 26000 |
| MPMLLIIFPLLYFLYCIHNLFHIISHYYEVFNTFYIVILHLSFLFYLHFILFH | 69500 |
| MPNAGIWCARWFIPLLFLPLPSASPYFLTVFIFSLIVQARPCFYCILMLTALF | 58200 |
| MPNCLNIRFFLFFLLKFLYAPLSFLLFPYPSHAYLFFHVLLLINCLFVDVIPV | 54600 |
| MPNDWFIYGCIFLECYISYGVYIRVWFLLMDFVLGPISHLSIYFLWIWFILLC | 66900 |
| MPNEESKPVDQAAQEAEASKAVEELKLDEGSASKGKSSKKDKIKNAISSISSS | 26800 |
| MPNKLVYEICFVHLTINCLCRGCLMYCALYIILIIKYHNHLLYFIFFNFMAIP | 38200 |
| MPNLGLRREWYKGDFSVKYTQLTLIYLVMCVWFPSCLGGYMLTLQYIMLLLIM | 68600 |
| MPPAPKSPQARRAGAPKAKGAVRAKSGCYTCRIRRKKCDEQMNPEGSCSTCVR | 37400 |
| MPPAPKSPQPRRPGAPKSKGAVRAKSGCYTCRIRRKKCDEQMNAEGSCSTCVR | 42800 |
| MPPCGLVSLTCLTELVLGLNITACVVILVDGNHLIYILSLFFWCWILLTLPAT | 35500 |
| MPPFFFGLWRIFFFFFFFFCKQLWWTVEFVTYVSCFFFLLNKLVFWLFFFSVC | 58500 |

| Sequence | transcriptional activation domain activity |
| --- | --- |
| MPPFLFSEGAFMFRICFFPLCLWWCLFLFFSFFLLLQFLSYGFAFSCGRYILF | 65100 |
| MPPHSEIDDIFAAKHSEPAPPPPPQKKKSKKRKRDAAAATVAPAAAPPPAAPA | 46500 |
| MPPKRGRPKKASTPPPAPVEDEAPAPVAAPRGRGRPRKVQPSGDPEQTTAPTP | 28500 |
| MPPLLQLRLVHFLQLCLLLLLLLLRLHLLELLHFLLVFLLHRSILLLCQICSL | 54800 |
| MPPNHPIRLFPLLVQILLLLSASSLLLDTYDYINLGINSSFSYYYFLHLLTFL | 44200 |
| MPPPRKPHRKSRYGCIQCKRRHVKCDEEKPCRRCLDREEQCSLKPDVAAADIT | 17600 |
| MPPQSRQSRMPEAPAEPRSARGRVTKRRSGNACVRCRRQKIKCSGSHPCEACS | 24800 |
| MPPRYIRYADRAVIENLSWYYWVFNPIMIGLYGPVRTIIDIYFRYFYNCILLF | 40100 |
| MPPTSSSVSRSSFSRGRTSSCRPRYSSSRPTSSSTSGSSRRTARSSPSASPRS | 11000 |
| MPPVAKQKRSAADRAKGASRAKSGCYTCRIRRKKCDEERDEHDHCRTCTRLRL | 23700 |
| MPQESKGKASAAAQRAHEKESKRARGALSCAECRRLKLKCDKSVPCSSCVRRG | 44700 |
| MPQSLTCRSASIIATQDCFDVIIFRLRFLLDIARGTLLLFRDHGRALTPFGRP | 51100 |
| MPQTAGQAVWHFILSLLYYQFVPFHIRRFIFSCFPLPVNIPTLFVFLNVLFFW | 51600 |
| MPRHLYLIYILYILMTWGLYLILLQVIFIITMLMIFIYPFSIYLFKFQHIRSL | 49500 |
| MPRKAAAATTEIPAEPRRSSRIKEQPKVEPAPKKAPAKPRGKKAKAAEAEAAP | 13000 |
| MPRLCCSCCYTDSLYFMIIRDRFFWLLHNGIVVVSLISYIRCMMISSPLLVGH | 48400 |
| MPRLCLWLTCIYGVMYCMEFSLLVYALHSLANEYYPASYGDNLGCVTVNLHYY | 44400 |
